{"source": "paper PMC12519216", "biological_target": "complex III (ubiquinone cytochrome C oxidoreductase) (mouse (endogenous in cerebellum)) (UniProt Q9CZ13)", "test": "native gel or EMSA; blue native PAGE (4 to 12% NativePAGE) of cerebellum mitochondria solubilised in 1% digitonin, WT and Mecr285/del10 mice; transferred to PVDF and immunoblotted; in-gel activity assays on parallel gels"}
{"substance": "complex III (ubiquinone cytochrome C oxidoreductase) (from UniProt Q9CZ13 35-480)", "values": [{"measurement": "stoichiometry N", "value": 2}]}
